Biological target: ST-pro-factor D-His (UniProt P00746)
Sequence (P00746 21-253): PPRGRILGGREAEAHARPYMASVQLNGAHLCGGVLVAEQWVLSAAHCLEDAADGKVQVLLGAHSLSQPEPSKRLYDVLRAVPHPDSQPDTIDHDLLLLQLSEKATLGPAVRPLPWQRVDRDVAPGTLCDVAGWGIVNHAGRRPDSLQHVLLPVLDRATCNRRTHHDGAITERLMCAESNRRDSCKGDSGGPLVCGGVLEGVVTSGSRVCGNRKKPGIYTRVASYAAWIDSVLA

B1: recombinant MASP-1 (CCP1-CCP2-SP) fragment (enzyme, part only; not given: tags; R504Q status unclear)
chain, part: GNECPELQPPVHGKIEPSQAKYFFKDQVLVSCDTGYKVLKDNVEMDTFQIECLKDGTWSNKIPTCKIVDCRAPGELEHGLITFSTRNNLTTYKSEIKYSCQEPYYKMLNNNTGIYTCSAQGVWMNKVLGRSLPTCLPVCGLPKFSRKLMARIFNGRPAQKGTTPWIAMLSHLNGQPFCGGSLLGSSWIVTAAHCLHQSLDPKDPTLRDSDLLSPSDFKIILGKHWRLRSDENEQHLGVKHTTLHPKYDPNTFENDVALVELLESPVLNAFVMPICLPEGPQQEGAMVIVSGWGKQFLQRFPETLMEIEIPIVDHSTCQKAYAPLKKKVTRDMICAGEKEGGKDACSGDSGGPMVTLNRERGQWYLVGTVSWGDDCGKKDRYGVYSYIHHNKDWIQRVTGVRN
Q: For B1, which “cleavage of pro-factor D substrate, Western blot” value is on record?
A: only full length MASP-3 (lane 2) and the MASP-1 CCP1-CCP2-SP) fragment (lane 5) cleaved ST-pro-factor D-His6

From patent US20130273053
